Test [1] addresses E6AP-Nanoluc (human) (UniProt Q05086). The experiment in a line: SPR.
The target is the same in test [2]. The experiment in a line: FRET or BRET. Background: In BRET a luciferase serves as donor, and the signal depends on an acceptor being close.

By Kd is commonly meant the concentration at which binding is half-saturated. Low readings indicate higher affinity, high ones lower affinity.

Sequence of E6AP-Nanoluc (human) (Q05086 whole entry): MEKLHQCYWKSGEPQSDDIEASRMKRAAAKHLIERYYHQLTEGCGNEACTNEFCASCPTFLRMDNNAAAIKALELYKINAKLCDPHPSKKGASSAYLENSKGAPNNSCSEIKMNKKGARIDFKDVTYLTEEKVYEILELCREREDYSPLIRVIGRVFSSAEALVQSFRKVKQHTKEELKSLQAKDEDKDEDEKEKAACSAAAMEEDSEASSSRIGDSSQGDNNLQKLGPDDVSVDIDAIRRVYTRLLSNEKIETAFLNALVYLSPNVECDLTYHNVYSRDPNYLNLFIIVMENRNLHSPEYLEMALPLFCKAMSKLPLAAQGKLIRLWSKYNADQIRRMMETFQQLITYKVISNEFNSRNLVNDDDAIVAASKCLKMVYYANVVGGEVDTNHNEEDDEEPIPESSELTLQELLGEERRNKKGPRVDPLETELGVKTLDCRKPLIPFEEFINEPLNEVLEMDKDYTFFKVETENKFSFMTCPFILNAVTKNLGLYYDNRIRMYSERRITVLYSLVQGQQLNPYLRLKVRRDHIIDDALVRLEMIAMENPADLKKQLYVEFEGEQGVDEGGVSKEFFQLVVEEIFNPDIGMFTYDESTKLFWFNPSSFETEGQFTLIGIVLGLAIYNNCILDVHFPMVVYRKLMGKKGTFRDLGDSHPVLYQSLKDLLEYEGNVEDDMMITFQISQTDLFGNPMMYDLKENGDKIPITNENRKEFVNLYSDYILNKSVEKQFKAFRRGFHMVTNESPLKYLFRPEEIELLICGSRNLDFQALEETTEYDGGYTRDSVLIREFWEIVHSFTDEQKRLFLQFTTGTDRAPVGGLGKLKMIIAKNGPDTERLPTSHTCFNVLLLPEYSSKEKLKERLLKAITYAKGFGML

As for “MBP-16E6-HaloTag protein (from UniProt P03126) (natural protein)”, the Kd with E6AP-Nanoluc (human) [1] was 4 nM; with E6AP-Nanoluc (human) [2], 15.3 nM.

These data come from article PMC10902388.
